Assay results: the Human Domainome abundance scans (Beltran et al. 2025)
± gives the uncertainty stated by the source.

B1: PMS1 protein homolog 1, residues 572 to 637; numbered along this chain, P54277 (parent)
chain: KKPMSASALFVQDHRPQFLIENPKTSLEDATLQIEELWKTLSEEEKLKYEEKATKDLERYNSQMKR

Variants of: B1
Experiment: abundance fitness (aPCA) (normalised: wild type 0, dead -1); higher = more abundant; growth selection in yeast, the domain comes from the species named
Settings: Homo sapiens

Variant	abundance fitness
T40G	-0.041 ± 0.075
T40E	-0.028 ± 0.18
T40H	-0.087 ± 0.1
T40I	-0.165 ± 0.1
T40D	-0.101 ± 0.11
T40P	-0.537 ± 0.14
T40L	-0.114 ± 0.073
T40C	0.115 ± 0.21
T40A	-0.294 ± 0.12
T40V	-0.239 ± 0.1
T40F	-0.041 ± 0.13
T40R	-0.125 ± 0.071
T40Q	-0.094 ± 0.095
T40W	-0.253 ± 0.12
T40Y	-0.387 ± 0.18
T40K	-0.099 ± 0.12
T40N	-0.086 ± 0.12
T40S	-0.128 ± 0.092
T40M	-0.165 ± 0.15
D29N	-0.119 ± 0.13
S42L	-0.801 ± 0.056
S42D	-0.045 ± 0.17
S42R	-0.24 ± 0.051
S42T	-0.078 ± 0.06

Variant	abundance fitness
S42N	-0.135 ± 0.21
S42M	-0.813 ± 0.088
S42Q	-0.322 ± 0.063
S42C	-0.28 ± 0.11
S42W	-1.34 ± 0.091
S42Y	-1.21 ± 0.15
S42G	-0.165 ± 0.066
S42A	-0.085 ± 0.064
S42K	-0.072 ± 0.073
S42V	-0.56 ± 0.067
S42E	-0.101 ± 0.067
S42P	-0.065 ± 0.071
L37I	-0.357 ± 0.15
L37M	-0.319 ± 0.26
L37E	-0.359 ± 0.2
L37K	0.116 ± 0.13
L37Y	-0.459 ± 0.35
L37T	-0.123 ± 0.27
L37S	-0.083 ± 0.11
L37A	-0.052 ± 0.14
L37C	-0.278 ± 0.42
L37R	-0.091 ± 0.15
L37P	-0.995 ± 0.4
L37W	-0.386 ± 0.094

Variant	abundance fitness
L37G	-0.175 ± 0.082
L37H	-0.01 ± 0.28
L37V	-0.127 ± 0.12
W38L	-1.01 ± 0.14
W38R	-0.292 ± 0.13
W38T	-0.343 ± 0.19
W38D	0.097 ± 0.46
W38G	-0.304 ± 0.19
W38F	-0.299 ± 0.17
W38E	-0.135 ± 0.13
W38H	0.034 ± 0.26
W38V	-0.504 ± 0.15
W38A	-0.369 ± 0.22
K46C	-0.569 ± 0.099
K46A	-0.395 ± 0.077
L32D	-0.283 ± 0.18
L32T	-0.246 ± 0.28
L32W	-0.156 ± 0.088
L32E	-0.144 ± 0.13
L32R	0.019 ± 0.062
L32I	-0.172 ± 0.15
L32K	0.002 ± 0.14
L32Q	-0.15 ± 0.18
L32G	-0.261 ± 0.092

Variant	abundance fitness
L32M	0.043 ± 0.2
L32P	-0.349 ± 0.13
L32S	-0.18 ± 0.13
L32V	-0.117 ± 0.18
S26M	-0.482 ± 0.067
S26R	-0.282 ± 0.062
S26Q	-0.327 ± 0.1
S26Y	-0.861 ± 0.061
S26H	-0.349 ± 0.06
S26E	-0.317 ± 0.12
S26P	-0.21 ± 0.06
S26I	-0.605 ± 0.053
S26F	-0.775 ± 0.08
S26V	-0.654 ± 0.073
S26C	-0.111 ± 0.069
S26N	-0.167 ± 0.068
S26T	-0.061 ± 0.042
S26K	-0.155 ± 0.067
S26G	-0.223 ± 0.098
S26L	-0.538 ± 0.053
S26A	-0.229 ± 0.063
S26W	-1.3 ± 0.11
S26D	-0.102 ± 0.11
D13N	-0.556 ± 0.25

Variant	abundance fitness
D13G	-0.844 ± 0.29
D13C	-0.66 ± 0.28
L9K	-0.044 ± 0.19
L9N	-0.467 ± 0.27
L9P	-0.98 ± 0.25
L9T	-0.287 ± 0.15
L9V	-0.2 ± 0.17
L9F	-0.131 ± 0.14
L9Y	-0.155 ± 0.17
L9S	-0.254 ± 0.12
L9M	-0.167 ± 0.47
L9G	-0.308 ± 0.11
L9R	-0.017 ± 0.076
L9Q	0.032 ± 0.16
L9A	-0.61 ± 0.23
A30H	-0.34 ± 0.32
A30E	-0.414 ± 0.21
A30L	-0.634 ± 0.38
A30V	-0.29 ± 0.17
A30R	-0.666 ± 0.15
A30G	-0.401 ± 0.14
A30W	-0.632 ± 0.16
A30Q	-0.439 ± 0.41
A30T	-0.668 ± 0.25

Variant	abundance fitness
E43W	-0.046 ± 0.065
E43M	-0.039 ± 0.083
E43R	-0.025 ± 0.059
E43S	0 ± 0.051
E43L	-0.06 ± 0.049
E43G	-0.09 ± 0.056
E43I	-0.133 ± 0.063
E43F	-0.234 ± 0.077
E43D	0.029 ± 0.1
E43C	-0.102 ± 0.073
E43H	-0.087 ± 0.11
E43P	-0.086 ± 0.067
E43A	0.004 ± 0.067
E43Q	0.007 ± 0.08
E43N	0.046 ± 0.13
E43T	0.032 ± 0.073
E43V	-0.026 ± 0.053
E43K	-0.236 ± 0.08
E43Y	-0.095 ± 0.086
T25A	0.042 ± 0.081
T25K	-0.302 ± 0.15
T25F	0.201 ± 0.29
T25V	0.116 ± 0.12
T25L	-0.096 ± 0.092

Variant	abundance fitness
T25Q	-0.143 ± 0.12
T25C	-0.159 ± 0.16
T25R	-0.317 ± 0.095
T25M	-0.156 ± 0.17
T25H	-0.395 ± 0.33
T25P	-0.627 ± 0.14
T25W	-0.531 ± 0.091
T25N	-0.192 ± 0.12
T25G	-0.387 ± 0.094
H14Y	-0.063 ± 0.089
A8D	-0.162 ± 0.45
A8W	-0.347 ± 0.19
A8V	-0.457 ± 0.15
A8L	-0.288 ± 0.41
A8R	-0.119 ± 0.093
A8G	-0.223 ± 0.13
A8E	0.147 ± 0.31
V11I	-0.432 ± 0.23
P16V	-0.47 ± 0.12
P16E	-0.087 ± 0.11
P16T	-0.159 ± 0.25
P16M	-0.447 ± 0.21
P16G	-0.244 ± 0.068
P16K	-0.17 ± 0.14

Variant	abundance fitness
P16L	-0.401 ± 0.12
P16D	0.118 ± 0.15
P16S	-0.214 ± 0.16
P16C	-0.357 ± 0.11
P16I	-0.224 ± 0.25
P16Q	-0.041 ± 0.16
P16W	-0.421 ± 0.17
P16R	-0.08 ± 0.12
P16Y	-0.198 ± 0.18
P16A	-0.06 ± 0.099
Q33R	-0.229 ± 0.18
Q33K	-0.06 ± 0.2
Q33P	-0.579 ± 0.17
Q33E	-0.124 ± 0.095
Q33V	-0.329 ± 0.17
Q33D	-0.24 ± 0.38
Q33A	-0.05 ± 0.12
Q33G	-0.405 ± 0.12
Q33S	-0.23 ± 0.16
Q33M	-0.283 ± 0.11
Q33T	-0.454 ± 0.22
Q33W	-0.696 ± 0.16
Q12T	-0.54 ± 0.26
Q12A	0.258 ± 0.27

Variant	abundance fitness
E21D	-0.446 ± 0.24
F10M	-0.433 ± 0.26
F10E	-0.483 ± 0.12
F10D	-0.487 ± 0.2
F10Q	-0.466 ± 0.13
F10A	-0.608 ± 0.12
F10L	-0.731 ± 0.12
F10K	-0.368 ± 0.11
F10S	-0.422 ± 0.13
F10P	-0.686 ± 0.22
F10V	-0.812 ± 0.12
F10G	-0.791 ± 0.1
F10H	-0.183 ± 0.39
F10N	-0.655 ± 0.16
F10R	-0.651 ± 0.074
F10W	-0.267 ± 0.15
L27M	-0.089 ± 0.17
L27A	-0.127 ± 0.18
L27G	-0.308 ± 0.12
L27Y	-0.079 ± 0.16
L27E	-0.538 ± 0.41
L27T	-0.101 ± 0.14
L27P	0.057 ± 0.22
L27Q	-0.532 ± 0.31

Variant	abundance fitness
L27C	-0.384 ± 0.19
L27F	0.224 ± 0.23
L27V	-0.132 ± 0.13
L27S	-0.048 ± 0.14
E45M	-0.21 ± 0.1
E45V	-0.169 ± 0.06
E45H	-0.123 ± 0.085
E45R	-0.187 ± 0.068
E45T	-0.214 ± 0.083
E45S	-0.198 ± 0.073
E45F	-0.606 ± 0.16
E45A	-0.258 ± 0.056
E45Y	-0.787 ± 0.17
E45C	-0.327 ± 0.1
E45W	-0.78 ± 0.074
E45N	-0.476 ± 0.18
E45P	-0.811 ± 0.14
E45I	-0.085 ± 0.14
E45Q	-0.142 ± 0.11
E45D	-0.133 ± 0.1
E45L	-0.262 ± 0.067
E45K	-0.244 ± 0.083
L41T	-0.007 ± 0.086
L41I	-0.202 ± 0.17

Variant	abundance fitness
L41N	-0.501 ± 0.12
L41V	-0.023 ± 0.1
L41E	-0.295 ± 0.11
L41F	-0.733 ± 0.1
L41H	-0.467 ± 0.14
L41Q	-0.052 ± 0.14
L41G	-0.315 ± 0.066
L41P	-0.622 ± 0.22
L41C	-0.196 ± 0.13
L41D	-0.319 ± 0.094
L41M	-0.145 ± 0.1
L41W	-0.617 ± 0.078
L41Y	-0.59 ± 0.083
L41R	-0.202 ± 0.058
L41S	-0.069 ± 0.058
L41K	-0.317 ± 0.12
T31F	-0.325 ± 0.44
T31M	-0.516 ± 0.18
T31L	-0.433 ± 0.1
T31E	-0.142 ± 0.25
T31P	-0.599 ± 0.34
T31D	-0.11 ± 0.48
T31Q	-0.359 ± 0.28
T31G	-0.321 ± 0.14

Variant	abundance fitness
T31R	-0.089 ± 0.13
T31S	-0.335 ± 0.26
R15V	0.033 ± 0.086
R15S	-0.41 ± 0.16
R15D	-0.729 ± 0.11
R15A	-0.039 ± 0.13
R15P	-0.541 ± 0.14
R15L	0.003 ± 0.084
R15W	-0.408 ± 0.12
R15H	-0.227 ± 0.15
R15N	-0.769 ± 0.23
R15M	0.07 ± 0.075
R15G	-0.559 ± 0.075
R15E	-0.409 ± 0.14
R15F	0.035 ± 0.43
R15Q	-0.336 ± 0.12
R15K	-0.38 ± 0.23
R15T	-0.111 ± 0.27
E44A	-0.077 ± 0.063
E44V	-0.113 ± 0.057
E44T	-0.135 ± 0.092
E44R	-0.124 ± 0.046
E44C	-0.155 ± 0.069
E44Y	-0.317 ± 0.11

Variant	abundance fitness
E44G	-0.064 ± 0.052
E44W	-0.433 ± 0.067
E44N	-0.385 ± 0.14
E44Q	-0.142 ± 0.095
E44I	-0.345 ± 0.086
E44D	-0.081 ± 0.083
E44S	-0.05 ± 0.056
E44H	-0.071 ± 0.12
E44M	-0.408 ± 0.089
E44F	-0.284 ± 0.11
K39V	-0.465 ± 0.23
K39H	-0.205 ± 0.32
K39I	-0.535 ± 0.46
K39D	-0.308 ± 0.26
K39S	-0.081 ± 0.25
K39L	-0.22 ± 0.18
K39E	-0.095 ± 0.11
K39Q	0.017 ± 0.26
K39C	-0.156 ± 0.17
K39R	-0.285 ± 0.099
K39W	-0.507 ± 0.21
K39P	-0.252 ± 0.18
K39Y	-0.104 ± 0.39
K39A	-0.062 ± 0.1

Variant	abundance fitness
K39G	-0.875 ± 0.12
S7T	-0.122 ± 0.12
S7Q	0.176 ± 0.12
S7N	-0.055 ± 0.18
S7W	-0.388 ± 0.24
S7R	0.121 ± 0.076
E35M	-0.038 ± 0.14
E35R	-0.142 ± 0.081
E35I	-0.33 ± 0.33
E35D	-0.86 ± 0.4
E35K	-0.26 ± 0.28
E35H	-0.171 ± 0.12
E35F	-0.251 ± 0.31
E35T	-0.207 ± 0.15
E35N	-0.389 ± 0.26
E35C	-0.274 ± 0.098
E35P	-0.14 ± 0.31
E35Q	-0.414 ± 0.47
E35S	-0.189 ± 0.1
E35A	-0.2 ± 0.13
E35V	-0.548 ± 0.12
E35W	-0.774 ± 0.16
